Values belong to the binder of their own block, whether it stands above or below them.
How the values were obtained:
[1] = target: PRAME peptide … presented by the HLA-A*02:01-encoded molecule (human); test: cell-based or functional assay
[2] = target: T1, PRAME peptide on HLA-A*02:04 (human); test: cytokine release
T1 peptide: SLLQHLIGL

[3] = target: T2, PRAME peptide on HLA-A*02:02 (human); test: cytokine release
T2 peptide: SLLQHLIGL

[4] = target: T3, irrelevant peptide peptide on HLA-A*02:01 (human); test: cytokine release
T3 peptide: GLSNTHVL

[5] = target: T4, PRAME peptide on HLA-A*02:01 (human); test: IFN-gamma immunoassay; general statement of the description and claim 4; the same paragraph says preferably less than 10^-8 M (FIG. 2); full-length, on cells
T4 peptide: SLLQHLIGL

EC50 value of the relative IFN-gamma release (peptide concentration on T2 cells) [1]: 11.6 nM
B1: TCR T23.8-2.1-027-004 (TCR, V domains shown)
V domain 1: GQQLNQSPQSMFIQEGEDVSMNCTSSSIFNTWLWYKQDPGEGPVLLIALYKAGELTSNGRLTAQFGITRKDSFLNISASIPSDVGIYFCAGLADYGGSQGNLIFGKGTKLSVKP
V domain 2: DSGVTQTPKHLITATGQRVTLRCSPRSGDLSVYWYQQSLDQGLQFLIQYYNGEERAKGNILERFSAQQFPDLHSELNLSSLELGDSALYFCASSVWASGGYEQYFGPGTRLTVTE

binding result [2]: recognises
binding result [3]: recognises
binding result [4]: no recognition
EC50 of peptide [5]: < 100 nM
B2: TCR T23.8-2.1-027-004 (TCR, V domains shown)
Valpha: B1 V domain 1
Vbeta: DSGVTQTPKHLITATGQRVTLRCSPRSGDLSVYWYQQSLDQGLQFLIQYYNGEERAKGNILERFSAQQFPDLHSELNLSSLELGDSALYFCASSVWASGGYEQYFGPGTRLTVT
